B1: HDV Ribozyme (parent)
chain: GGCCGGCAUGGUCCCAGCCUCCUCGCUGGCGCCGGCUGGGCAACAUUCCGAGGGGACCGUCCCCUCGGUAAUGGCGAAUGGGACCCA

Variants of: B1
Test: self-cleavage, relative activity (ratio to wild type); higher = more cleavage; co-transcriptional
With C19A A78U the self-cleavage was 0.138.
For G40A G50A, the self-cleavage was 0.884.
For C36U G73A, the self-cleavage was 0.428.
G17U G29A gave a self-cleavage of 0.0314.
With G68A G82U the self-cleavage was 0.324.
A42C C86G gave a self-cleavage of 0.353.
In the case of G34A G39U, the self-cleavage is reported as 0.287.
For C4U A56G, the self-cleavage was 0.665.
Variant A8U G52C has a self-cleavage of 0.779.
Variant A8G U79A has a self-cleavage of 0.692.
Work on G34C A83U yielded a self-cleavage of 0.0755.
For U69C A83C, the self-cleavage was 0.57.
Variant G17U G54C has a self-cleavage of 0.536.
For A45U G73A, the self-cleavage was 0.616.
With C19A C32A the self-cleavage was 0.0604.
Work on U20A C62U yielded a self-cleavage of 0.0475.
In the case of U27A C44A, the self-cleavage is reported as 0.369.
In the case of G29A U69A, the self-cleavage is reported as 0.172.
Work on A8C G54A yielded a self-cleavage of 0.759.
G25U C85G gave a self-cleavage of 0.0755.
In the case of G53C A83U, the self-cleavage is reported as 0.332.
With U65G G82U the self-cleavage was 0.453.
For C21A C49U, the self-cleavage was 0.0272.
Variant C49A C66U has a self-cleavage of 0.979.
C26U A83U gave a self-cleavage of 0.79.
For C26U A83G, the self-cleavage was 0.776.
G34A gave a self-cleavage of 0.189.
C13A C18A showed a self-cleavage of 0.169.
G10C A78C showed a self-cleavage of 0.185.
With G5C C30U the self-cleavage was 0.128.
G55A C75U gave a self-cleavage of 0.208.
C14U A78C showed a self-cleavage of 0.237.
Work on G74C G80A yielded a self-cleavage of 0.227.
With U12A U69C the self-cleavage was 0.35.
U23C G31U gave a self-cleavage of 0.151.
In the case of G52U G54U, the self-cleavage is reported as 0.784.
Work on C15U G39A yielded a self-cleavage of 0.151.
With C18G U47C the self-cleavage was 0.185.
For G67U C86A, the self-cleavage was 1.
Work on A16C G52C yielded a self-cleavage of 1.04.
Variant C26A C58A has a self-cleavage of 1.24.
In the case of C36A U72C, the self-cleavage is reported as 0.0405.
Variant C15U A78C has a self-cleavage of 0.166.
With C18G G80C the self-cleavage was 0.0707.
With C19A G80C the self-cleavage was 0.0665.
U47C C86U gave a self-cleavage of 0.712.
Variant C19A C44G has a self-cleavage of 0.0615.
In the case of G1U U37C, the self-cleavage is reported as 0.415.
G17U C58A gave a self-cleavage of 0.847.
For G50U A83G, the self-cleavage was 0.818.
With C7A A77U the self-cleavage was 0.0875.
For G35U C62G, the self-cleavage was 0.259.
In the case of U65G A87G, the self-cleavage is reported as 0.973.
Variant A8C C57G has a self-cleavage of 0.87.
Variant C41A C62G has a self-cleavage of 0.324.
Work on G38U G68C yielded a self-cleavage of 0.245.
Variant G29A U79A has a self-cleavage of 0.166.
G29A U79C showed a self-cleavage of 0.113.
Variant C62A C64G has a self-cleavage of 0.142.
C57A C62U gave a self-cleavage of 1.06.
C7A G39A gave a self-cleavage of 0.0739.
With C44A C58A the self-cleavage was 1.01.
Variant G28U C49U has a self-cleavage of 0.0639.
C66U A87G showed a self-cleavage of 0.999.
For U65G G67U, the self-cleavage was 0.569.
Work on C61U A83C yielded a self-cleavage of 0.378.
With U65A G68A the self-cleavage was 0.641.
C14U G34A showed a self-cleavage of 0.17.
In the case of G53C G80C, the self-cleavage is reported as 0.0755.
Work on G34A G40U yielded a self-cleavage of 0.0685.
Work on C33U G76U yielded a self-cleavage of 1.02.
For C57A G68C, the self-cleavage was 1.06.
For C32G A42G, the self-cleavage was 0.0426.
G59C C63A showed a self-cleavage of 1.17.
In the case of C22G C26U, the self-cleavage is reported as 0.208.
In the case of C3G C62U, the self-cleavage is reported as 0.822.
Work on G5U G82A yielded a self-cleavage of 0.185.
Variant C44U U72A has a self-cleavage of 0.678.
U79A A87G gave a self-cleavage of 0.752.
Variant A45U C63G has a self-cleavage of 0.63.
For G53U C64U, the self-cleavage was 0.853.
In the case of G35A A56G, the self-cleavage is reported as 0.769.
For G31C C49U, the self-cleavage was 0.339.
Variant U47A G53U has a self-cleavage of 0.755.

Source: the RNAGym collection of RNA variant scans (doi:10.7554/elife.80360)
